The values below come from publication doi:10.1101/2025.05.14.654016.

The assay deals with LSSmGFP-PRL-3.C104D (human) (UniProt O75365). As to the kind of experiment: FRET or BRET; in vitro FRET, competition: LSSmGFP-PRL3.C104D (250 nM) preincubated with competitor or test compound 30 min at room temperature, then HA-CBS-mScarlet3 (500 nM); 100 mM NaCl, 20 mM HEPES pH 7.5, 5% glycerol; normalised to DMSO control.
LSSmGFP-PRL-3.C104D (human), sequence (O75365 whole entry C104D): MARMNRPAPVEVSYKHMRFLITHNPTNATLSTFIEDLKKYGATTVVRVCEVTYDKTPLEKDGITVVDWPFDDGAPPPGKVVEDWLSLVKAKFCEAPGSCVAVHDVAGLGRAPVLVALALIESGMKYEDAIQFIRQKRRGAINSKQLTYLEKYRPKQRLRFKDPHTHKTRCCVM

“PSM-001 (cyclic peptide, PRL substrate mimic) (from UniProt Q8NE01 416-432)” showed a percent reduction of the FRET signal at 50 μM of 40%.
